Experiments:
Details in all cases: 20 nM; 72 h
MCF10A [1] = test: one-nucleolus phenotype percent effect (relative to siNT 0% and siNOL11 100%); higher = more cells with one nucleolus (ribosome biogenesis inhibition)
Procedure: (§1)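 After 72 h, cells were fixed and stained with Hoechst and anti-fibrillarin, and nucleoli per nucleus were counted with CellProfiler. Values are plate-adjusted percent effect for the one-nucleolus and 5+ nucleoli phenotypes, normalised to siNT (0%) and to the positive controls siNOL11 or siKIF11 (100%), as the mean of biological triplicates. Percent viability is the nuclei count relative to siNT.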

MCF10A [2] = test: percent viability (nuclei count relative to siNT); higher = more viable cells
Procedure: as §1

MCF10A [3] = test: 5+ nucleoli phenotype percent effect (relative to siNT 0% and siKIF11 100%); higher = more cells with five or more nucleoli
Procedure: as §1

Sequence | one-nucleolus phenotype percent effect (MCF10A [1]) | percent viability (MCF10A [2]) | 5+ nucleoli phenotype percent effect (MCF10A [3])
AGGGGUGUGGAAAGAGGCAGAACA [hsa-miR-6747-5p] | -4.28% | 40% | 37.7%
CCAGACAGAAUUCUAUGCACUUUC [hsa-miR-1324] | -11% | 120% | 49.8%
UGUCAGUUUGUCAAAUACCCCA [hsa-miR-223-3p] | -4.68% | 86.9% | 7.19%
AUCCCACCUCUGCCACCA [hsa-miR-1260a] | -2.14% | 42.3% | 24.8%
AGAAUUGUGGCUGGACAUCUGU [hsa-miR-219-2-3p] | 35.6% | 33.5% | -41.8%
UUUCCGGCUCGCGUGGGUGUGU [hsa-miR-1180] | 12.6% | 31.8% | -27.5%
UGAUGAUACAGGUGGAGGUAG [hsa-miR-3682-3p] | 19.3% | 31.5% | -7.38%
UUUAGUGUGAUAAUGGCGUUUGA [hsa-miR-3591-5p] | 11.5% | 39.6% | 0.56%
CAGCCCCACAGCCUCAGA [hsa-miR-4323] | 2.83% | 39.3% | -13.4%
AUUGCCUAACAUGUGCCAGAA [hsa-miR-4774-3p] | 13.7% | 26.6% | -31.6%
UUGGGAUCAUUUUGCAUCCAUA [hsa-miR-450b-3p] | -1.71% | 42.8% | -2.46%
AGGUUGACAUACGUUUCCC [hsa-miR-563] | -18% | 70.5% | 46.2%
UUCUCUCUGUCUUUCUCUCUCAG [hsa-miR-6873-3p] | -19% | 35.2% | 46.6%
UACCCUGUAGAACCGAAUUUGUG [hsa-miR-10b-5p] | 25.8% | 30.6% | -26.1%
ACCAAGUCUGCGUCAUCCUCUC [hsa-miR-3691-3p] | -5.26% | 63.2% | 0.0313%
GGUUGGGCAGUGAGGAGGGUGUGA [hsa-miR-3147] | -13.3% | 26% | 31%
AUCAUGUAUGAUACUGCAAACA [hsa-miR-6516-3p] | 25.6% | 46.4% | -35%
CCGGGAGAAGGAGGUGGCCUGG [hsa-miR-6746-5p] | -15.9% | 50.3% | 61.4%
UGCCCUGAGACUUUUGCUC [hsa-miR-7976] | 17.4% | 40.8% | -8.65%
UGAGAGUGGAAUUCACAGUAUUU [hsa-miR-4693-3p] | 35.2% | 23% | -31.4%

Sequence | one-nucleolus phenotype percent effect (MCF10A [1]) | percent viability (MCF10A [2]) | 5+ nucleoli phenotype percent effect (MCF10A [3])
GUGGGCUGGGCUGGGCUGGGCC [hsa-miR-3620-5p] | 27.5% | 31.3% | -31.1%
UCUGAGGCCUGCCUCUCCCCA [hsa-miR-4649-3p] | 23.9% | 54.4% | -6.15%
CGCAUCCCCUAGGGCAUUGGUGU [hsa-miR-324-5p] | -15.6% | 76.6% | 21.4%
CAGGGCCAGGCACAGAGUAAG [hsa-miR-6895-5p] | 13.8% | 41.8% | 0.712%
UUAGUCUCAUGAUCAGACACA [hsa-miR-4474-5p] | -23.4% | 29.8% | 35.6%
UCAGGCUCAGUCCCCUCCCGAU [hsa-miR-484] | -7.07% | 97% | 40.7%
UUACACACAACUGAGGAUCAUA [hsa-miR-3941] | 7.76% | 16.8% | 0.22%
UCUUCUCUGUUUUGGCCAUGUG [hsa-miR-942] | -0.685% | 73.4% | 12.1%
UUCUCGAGGAAAGAAGCACUUUC [hsa-miR-516a-5p] | -19.5% | 127% | 22.1%
ACAGGGAGGAGAUUGUA [hsa-miR-4441] | 46.5% | 18.5% | -15.6%
GGGAGAAGGGUCGGGGC [hsa-miR-4516] | -25.4% | 94.1% | 31.9%
CAAGGAGACGGGAACAUGGAGC [hsa-miR-4428] | -16.1% | 69.6% | 32.8%
CACCCGGCUGUGUGCACAUGUGC [hsa-miR-941] | -3.88% | 56.3% | -23.6%
UUGCAUGUCAGAUUGUAAUUCCC [hsa-miR-4666b] | 5.21% | 64.4% | -10.4%
AUCGCUUUACCAUUCAUGUU [hsa-miR-4790-5p] | 16.1% | 34.2% | -9.48%
AAUUGCACUUUAGCAAUGGUGA [hsa-miR-367-3p] | -12.8% | 111% | 18%
UUCAUGAACUGGGUCUAGCUUGG [hsa-miR-7154-5p] | -15.2% | 60.8% | -0.807%
UGAGGUAGUAGGUUGUAUGGUU [hsa-let-7c] | -17.3% | 25.9% | 56.3%
UAGAUAAAAUAUUGGUACCUG [hsa-miR-577] | -23.7% | 113% | 29.6%
AAAAGUAACUGCGGUUUUUGA [hsa-miR-548ak] | -23.5% | 89.9% | 45.4%

Sequence | one-nucleolus phenotype percent effect (MCF10A [1]) | percent viability (MCF10A [2]) | 5+ nucleoli phenotype percent effect (MCF10A [3])
UUUCCUCAUAUUCAUUCAGGA [hsa-miR-670-3p] | 4.99% | 46.6% | -7.45%
AGGCUGCGGAAUUCAGGAC [hsa-miR-604] | 29.2% | 25.6% | -15.7%
AGGGCCAGAGGAGCCUGGAGUGG [hsa-miR-4726-5p] | 5.63% | 50.1% | 18.8%
GCAGCAUUCAUGUCCC [hsa-miR-4310] | -11% | 62.6% | 17.2%
UGAGCGCCUCGACGACAGAGCCG [hsa-miR-339-3p] | -25.2% | 82.2% | 27%
UGGGGGUGUGGGGAGAGAGAG [hsa-miR-7110-5p] | 6.58% | 40.9% | -6.75%
GUUCCUGCUGAACUGAGCCAG [hsa-miR-3074-5p] | -7.07% | 42.2% | -17.7%
CCGCCUUCUCUCCUCCCCCAG [hsa-miR-6880-3p] | -31.4% | 117% | 65.6%
UCCAGGCAGGAGCCGGACUGGA [hsa-miR-4673] | -17.9% | 62.5% | 14.9%
ACUUAAACGUGGAUGUACUUGCU [hsa-miR-302a-5p] | -19% | 128% | 65.8%
CUGGGGGUGGGGGGCUGGGCGU [hsa-miR-6803-5p] | -13.5% | 86.6% | 16%
CACUGUUUCCUUUCUGAGUGGA [hsa-miR-892c-3p] | 1.69% | 93.2% | -29.1%
AAUGUGGAAGUGGUCUGAGGCAU [hsa-miR-4657] | 10.1% | 30.7% | 6.84%
AAUCAUGUGCAGUGCCAAUAUG [hsa-miR-96-3p] | 1.6% | 28.5% | 24.5%
CAAAAACCGCAAUUACUUUUGCA [hsa-miR-548z] | 0.602% | 36% | -14.9%
GCAGCAGGGUGAAACUGACACA [hsa-miR-761] | 4.85% | 56.9% | 9.29%
GCGGGGGUGGCGGCGGCAUCCC [hsa-miR-4787-5p] | -21.5% | 86.7% | 25.2%
UGCGGCAGAGCUGGGGUCA [hsa-miR-6820-5p] | 11.9% | 16.9% | 3.87%
UCACUGUUCAGACAGGCGGA [hsa-miR-1208] | -21.6% | 112% | 20.6%
